For the assay, the target named is T1, recombinant human HSP70-1A (rhHSP70-1A) (human, UniProt P0DMV8 1-641).
T1 construct: commercially available purified recombinant human HSP70-1A (HSPA1A); source: bought: Sino Biological Inc
Briefly: BLI; Octet RED96; rhCLEC14a-ECD immobilised on amine-reactive biosensors; rhHSP70-1A 200-25 nM in 2-fold dilutions in 1x kinetics buffer; 1:1 binding model. Conditions: both partners purified. (In BLI a coated tip is dipped into the sample, and binding shifts an interference pattern.)

T1 sequence (P0DMV8 whole entry): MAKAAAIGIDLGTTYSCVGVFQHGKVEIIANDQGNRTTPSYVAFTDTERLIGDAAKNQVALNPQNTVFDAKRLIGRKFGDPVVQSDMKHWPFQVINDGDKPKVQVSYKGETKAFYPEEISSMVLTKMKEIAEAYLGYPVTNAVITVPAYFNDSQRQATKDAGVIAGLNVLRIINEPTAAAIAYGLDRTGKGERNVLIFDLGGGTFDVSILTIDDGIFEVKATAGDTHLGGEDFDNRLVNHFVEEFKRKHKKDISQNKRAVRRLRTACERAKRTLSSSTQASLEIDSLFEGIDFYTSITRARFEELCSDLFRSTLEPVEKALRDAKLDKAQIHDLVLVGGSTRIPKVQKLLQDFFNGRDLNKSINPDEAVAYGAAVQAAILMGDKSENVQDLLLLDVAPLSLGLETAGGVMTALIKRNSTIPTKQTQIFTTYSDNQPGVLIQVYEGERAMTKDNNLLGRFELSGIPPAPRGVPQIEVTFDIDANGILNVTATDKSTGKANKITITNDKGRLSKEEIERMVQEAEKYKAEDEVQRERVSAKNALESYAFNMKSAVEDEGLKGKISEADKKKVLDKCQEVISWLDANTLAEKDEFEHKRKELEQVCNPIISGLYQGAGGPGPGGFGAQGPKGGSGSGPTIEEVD

B1: recombinant human CLEC14a extracellular domain (rhCLEC14a-ECD) (domain or fragment, UniProt Q86T13 22-397, looked up)
chain: EHPTADRAGCSASGACYSLHHATMKRQAAEEACILRGGALSTVRAGAELRAVLALLRAGPGPGGGSKDLLFWVALERRRSHCTLENEPLRGFSWLSSDPGGLESDTLQWVEEPQRSCTARRCAVLQATGGVEPAGWKEMRCHLRANGYLCKYQFEVLCPAPRPGAASNLSYRAPFQLHSAALDFSPPGTEVSALCRGQLPISVTCIADEIGARWDKLSGDVLCPCPGRYLRAGKCAELPNCLDDLGGFACECATGFELGKDGRSCVTSGEGQPTLGGTGVPTRRPPATATSPVPQRTWPIRVDEKLGETPLVPEQDNSVTSIPEIPRWGSQSTMSTLQMSLQAESKATITPSGSVISKFNSTTSSATPQAFDSSSA
notes: commercially available purified recombinant human CLEC14a extracellular domain; source: bought: Abcam
Broadly, the Kd is the concentration at which binding is half-saturated. Turning to B1, the Kd was around 8 nM.
